The results in this text go back to PMC11570452, “MOTS-c modulates skeletal muscle function by directly binding and activating CK2” (iScience, 2024).

This experiment concerns the target T1, CK2α (recombinant, GenScript) (UniProt P68400 1-391).
T1 construct: CK2α, catalytic alpha subunit of casein kinase II; No catalogue number, species or construct is printed; also called CK2α subunit; CK2 alpha; source: bought: GenScript
The experiment can be described thus: SPR; Biacore T200; MOTS-c or K14Q MOTS-c (10 μg/mL, 10 mM sodium acetate pH 5.0) immobilised on CM5 chip (278 RU and 193 RU); first 70 nM CK2α or CK2β, then CK2α at 2.5, 5.0, 10 and 20 nM flowed at 30 μL/min in 0.01 M HEPES, 0.15 M NaCl, 0.3 mM EDTA, 0.05% tween. To be noted: both partners purified.

T1 sequence (P68400 whole entry): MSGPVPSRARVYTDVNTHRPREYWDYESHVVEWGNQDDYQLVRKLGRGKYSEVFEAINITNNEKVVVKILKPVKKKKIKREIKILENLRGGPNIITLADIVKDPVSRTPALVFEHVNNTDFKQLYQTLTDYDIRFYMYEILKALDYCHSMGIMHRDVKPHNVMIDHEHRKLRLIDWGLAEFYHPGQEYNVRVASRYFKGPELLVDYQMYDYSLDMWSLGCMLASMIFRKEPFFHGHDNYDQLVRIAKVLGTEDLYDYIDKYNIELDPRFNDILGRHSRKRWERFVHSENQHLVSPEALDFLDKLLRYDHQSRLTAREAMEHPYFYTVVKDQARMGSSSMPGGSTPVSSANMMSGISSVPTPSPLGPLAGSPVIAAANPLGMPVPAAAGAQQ

B1: MOTS-c (mitochondrial open reading frame of the 12S ribosomal RNA type-c), wild type (peptide)
peptide: MRWQEMGYIFYPRKLR
notes: MOTS-c, human, 16-amino acid microprotein encoded in the mitochondrial 12S rRNA region; also called WT MOTS-c; synthetic MOTS-c; source: synthetic peptide, bought: GenScript; for the co-IP injected into mice (7.5 mg/kg) and found in tissue lysate
In the case of B1, the dissociation constant (Kd) amounted to 1 nM.

B2: K14Q MOTS-c (naturally occurring MOTS-c variant) (peptide, UniProt A0A0C5B5G6 1-16, looked up)
peptide: MRWQEMGYIFYPRQLR
notes: MOTS-c, human, natural variant m.1382A>C causing K14Q; source: synthetic peptide, bought: GenScript
On to B2, for which the Kd was found to be 16.2 nM.
